Results from patent US20160106861A1, “AXL ANTIBODY-DRUG CONJUGATE AND ITS USE FOR THE TREATMENT OF CANCER” (PIERRE FABRE MEDICAMENT, priority 2013, published 2016).

Target: T1, rhAxl-Fc protein (Homo sapiens, UniProt P30530)
T1 construct: purchased R and D Systems 154AL/CF
T1 sequence (P30530 26-451 limits assumed): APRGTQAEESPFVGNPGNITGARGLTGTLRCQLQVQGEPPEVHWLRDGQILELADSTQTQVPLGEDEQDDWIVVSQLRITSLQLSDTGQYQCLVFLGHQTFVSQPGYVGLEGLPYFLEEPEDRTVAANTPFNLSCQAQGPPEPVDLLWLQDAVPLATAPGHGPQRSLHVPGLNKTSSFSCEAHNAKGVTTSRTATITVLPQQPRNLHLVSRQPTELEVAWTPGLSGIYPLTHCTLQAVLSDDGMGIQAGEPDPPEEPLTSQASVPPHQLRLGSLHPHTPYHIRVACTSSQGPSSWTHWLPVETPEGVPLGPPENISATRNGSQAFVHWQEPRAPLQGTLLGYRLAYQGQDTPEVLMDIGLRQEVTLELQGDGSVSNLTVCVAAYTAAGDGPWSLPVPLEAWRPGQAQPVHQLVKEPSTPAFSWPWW
Assay: ELISA with coated 1613F12 and a range of rhAxl-Fc protein (hz vs. m)
Format: binding
Details: FIG. 3
Method: In this assay, 96 well plates (Immulon II, Thermo Fisher) were coated with a 5 μg/ml of 1613F12 solution in 1×PBS, overnight at 4° C. After a saturation step, a range of rh Axl-Fc protein (R and D Systems, ref: 154-AL) is incubated for 1 hour at 37° C. on the coated plates. For the revelation step, a biotinylated-Axl antibody (in house product) was added at 0.85 μg/ml for 1 hour at 37° C. This Axl antibody belongs to a distinct epitopic group. Then an avidin-horseradish peroxidase solution at 1/2000° in diluent buffer is added to the wells. Then the TMB substrate solution is added for 5 min. After addition of the peroxydase stop solution, the absorbance at […] was measured with a microplate reader.

binding of rhAxl-Fc protein, murine versus humanized version: bind similarly the rhAxl-Fc protein
B1: hz1613F12: humanized Axl antibody 1613F12 (antibody, V domains shown)
VH: QVQLVQSGAEVKKPGASVKVSCKASGFNIRDTYMHWVRQAPGQGLEWMGRLDPANGHTKYAQKFQGRVTMTRDTSISTAYMELSRLRSDDTAVYYCARGAYYYGSSGLFYFDYWGQGTLVTVSS
VL: DVQMTQSPSSLSASVGDRVTITCRASKSISKYLAWYQQKPGKVPKLLIYSGSTLQSGVPSRFSGSGSGTDFTLTISSLQPEDVATYYCQQHHEYPLTFGGGTKVEIK
modifications: Hz1613F12 VH - Consensus 2; Hz1613F12 VL - Consensus 2
notes: humanized Axl antibody 1613F12
